Source: publication PMC10023680 (2023)

B1: GST-tagged ELMO1-RBD (residues 1-113), wild-type [human] / RhoG (residues 1-184) [human] (parent complex)
chain 1: MPPPADIVKVAIEWPGAYPKLMEIDQKKPLSAIIKEVCDGWSLANHEYFALQHADSSNFYITEKNRNEIKNGTILRLTTSPAQNAQQLHERIQSSSMDAKLEALKDLASLSRD
chain 2: not shown

Variants of: B1
Assay: SPR; RhoG in the active GTPγS-bound form; n = 3 independent experiments

Point of comparison: chain 1 E13A, Kd 44.3 µM. Against it:
- chain 1 L21A — 3.7-fold higher, 163 µM
- chain 1 N58A — 4.4-fold lower, 10 µM

Variants of: B1
Assay: SPR; read at the highest RhoG concentration, about 35 µM; RhoG in the active GTPγS-bound form; read off a plot

Point of comparison: chain 1 Y18A, response ~59%. Against it:
- chain 1 E13A — lower, ~46%
- chain 1 K9A — lower, ~0%
- chain 1 L21A — lower, ~18%
- chain 1 K20E — higher, ~64%
- chain 1 N58A — higher, ~78%
